Paper PMC12494035

Biological target: coatomer (COPI heptamer) (Mus musculus) (UniProt Q8CIE6)
Experiment: cryo-EM structure; cryo-electron tomography and subtomogram averaging of COPI-coated vesicles and buds from an in vitro budding reaction: liposomes with 3 mol % PI4P (0.23 mg/ml), GTPγS 0.5 mM, COPI 1.36 μM, Arf1 20 μM, ARNO 4 μM, GOLPH3 9 μM; 50 mM Hepes pH 7.2, 125 mM KOAc, 30 min at 37°C; 7.5 Å map, model by rigid body fitting of domains from AlphaFold 3 predictions

Sequence of Arf1 (P84077 whole entry, the tested form may be a part): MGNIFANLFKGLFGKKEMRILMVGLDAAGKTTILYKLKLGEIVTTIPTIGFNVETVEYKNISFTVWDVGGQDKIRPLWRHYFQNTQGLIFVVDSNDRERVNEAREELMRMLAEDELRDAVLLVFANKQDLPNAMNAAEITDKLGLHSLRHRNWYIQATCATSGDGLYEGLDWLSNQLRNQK

## Arf1 (from UniProt P84077 1-181) (natural protein)
  stoichiometry N (per COPI heptamer): 2
